For the series, the target named is T1, alpha-fetoprotein (AFP) (UniProt P02771 19-609).
T1 sequence: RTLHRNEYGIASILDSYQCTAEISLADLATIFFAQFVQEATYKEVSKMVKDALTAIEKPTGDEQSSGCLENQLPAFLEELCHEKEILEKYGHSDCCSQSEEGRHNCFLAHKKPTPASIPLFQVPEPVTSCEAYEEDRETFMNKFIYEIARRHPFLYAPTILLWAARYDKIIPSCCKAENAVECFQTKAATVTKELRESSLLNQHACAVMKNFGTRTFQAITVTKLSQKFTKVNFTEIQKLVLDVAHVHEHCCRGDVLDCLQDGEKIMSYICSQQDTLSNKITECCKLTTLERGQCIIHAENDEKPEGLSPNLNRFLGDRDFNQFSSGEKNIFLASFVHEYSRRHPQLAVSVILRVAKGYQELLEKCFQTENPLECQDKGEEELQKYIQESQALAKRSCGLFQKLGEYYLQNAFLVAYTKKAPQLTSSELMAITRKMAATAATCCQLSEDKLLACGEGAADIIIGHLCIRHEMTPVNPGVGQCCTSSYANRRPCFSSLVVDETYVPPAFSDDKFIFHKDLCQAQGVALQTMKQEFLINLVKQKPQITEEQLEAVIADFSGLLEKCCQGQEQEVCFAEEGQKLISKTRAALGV
Put plainly: fluorescence sandwich aptasensor (magnetic capture); capture aptamer on Fe3O4@MPTMS@AuNPs; AFP 0.005-10 ng/mL; LOD 1.429 pg/mL is not a Kd; PBS 10 mM, pH 7.4 (aptamer 1 immobilization); room temperature, 30 min AFP then 30 min aptamer 2; 15 nM aptamer 1, 8 ug/mL AIEgen aptamer 2, 10 ug/mL Fe3O4@MPTMS@AuNPs. Conditions: label: immobilized on Fe3O4@MPTMS@AuNPs.

B1: Aptamer 1 (AFP aptamer, 3'-SH) (ssDNA)
DNA: GTGACGCTCCTAACGCTGACTCAGGTGCAGTTCTCGACTCGGTCTTGATGTGGGTCCTGTCCGTCCGAACCAATC
modifications: 3'-thiol
As to B1, the binding result is “binds”.

The record behind these values is paper PMC10046738, “Detection of Alpha Fetoprotein Based on AIEgen Nanosphere Labeled Aptamer Combined with Sandwich Structure of Magnetic Gold Nanocomposites”.
